# Measured values published in publication PMC11592144, “Biochemical Characterization of an Arabinoside Monophosphate Specific 5′-Nucleotidase-like Enzyme from Streptomyces antibioticus” (Biomolecules, 2024).
# B1: PenF (Streptomyces antibioticus) (protein)
# chain: MVTLPDRVRAHVLADFATADPAHDIHHLDRVAALAGDIAVLLGADPQTAQVAAYVHDYHRVEEARQGRRPIRPEEARSAVLDVLERSEVPEKLHGTILRAVELTGRYRFGGDELDGEDLIAAAVHDADNLDAMGAVGVGRAFAFGGLLGEPLWEPAAGLKELYTEGETSSVLAHLYEKLVHLEKDMLTEPARRLAAERAFQLHRFAAEFRSQWGEEDVVSHSGGTRVHWDPLTRFLAVTQPEPDGITVTHIGFRGQAMLAFDEQGQPVGVDLLGAPEALTHCVPHAQRSRAWVADAAGGWLLDAEADVVWISISEAPVRRRLTAVGDIEVQLREGKLATLRMHLTEEAPVSVGGEGAP
# notes: codon-optimized penF in pET28a (NdeI/XhoI), C-terminal His6 tag, E. coli BL21(DE3), Ni-NTA; about 42 kDa by MALDI-TOF (45 kDa SDS-PAGE)
# Columns and labels:
# [1] = substrate: Nc1ncnc2c1ncn2[C@@H]1O[C@H](COP(=O)(O)O)[C@@H](O)[C@@H]1O; experiment: HPLC of Ara-A formation, Lineweaver-Burk; format: biochemical, Streptomyces antibioticus; conditions: 50 mM HEPES pH 7.5, 1 mM MgCl2, 0.01-1.5 mM substrate, 0.2 mg/mL PenF
# Excerpt: HPLC of Ara-A formation, Lineweaver-Burk on PenF
# [2] = substrate: Nc1ncnc2c1ncn2[C@H]1C[C@H](O)[C@@H](COP(=O)(O)O)O1; experiment: HPLC of deoxyadenosine formation, Lineweaver-Burk; format: biochemical, Streptomyces antibioticus; conditions: 50 mM HEPES pH 7.5, 1 mM MgCl2, 0.2-2.5 mM substrate, 0.2 mg/mL PenF
# Excerpt: HPLC of deoxyadenosine formation, Lineweaver-Burk on PenF
protein,measurement,setting,value
B1,Km,[1],71.5 µM
same,Vmax,[1],170 µM/min
same,kcat,[1],0.565 s⁻¹
same,kcat/Km,[1],7900 M⁻¹ s⁻¹
same,Km,[2],344 µM
same,Vmax,[2],11.9 µM/min
same,kcat,[2],0.04 s⁻¹
same,kcat/Km,[2],117 M⁻¹ s⁻¹
